# The nanobody polyreactivity screen of Harvey et al. (2022)
# Assay: yeast display, Sf9 membrane polyspecificity reagent, FACS + sequencing; frameworks hold sequencing errors
# Summary of the method: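 A synthetic nanobody library was expressed on Saccharomyces cerevisiae BJ5465 by galactose induction for 36–48 hours. The library was stained for 1 hour at 4 °C with 10% biotinylated, detergent-solubilized Sf9 membrane reagent and enriched with streptavidin microbeads before FACS. Low and high (top ~1%) gates were set on anti-HA fluorescence for expression and streptavidin fluorescence for reagent binding, and each polyreactivity label reflects the gate of origin.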
row,Sequence,polyreactivity (PSR sort gate)
1,QVQLVQSGGGLVQAGGSLRLSCAASGSTFRIYAMGWYRQAPGKEREFVAAISDRGGRTYYADSVKGRFTISRDNAKNTVYLQMNSLKPEDTAVYYCAAVKLLSSAPGDDCQMNYWGQGTQVTVSS,low polyreactivity
2,QFHLVESGGGLVQAGGSLRLSCAASGSIFNEYAMGWYRQAPGKERELVAAITNISGRKYYADSVKGRFTISRDNAKNTVYLQMNSLKPEDTAVYYCNARRTYTRPYIHSVYNYYYWGQGTEVTVSS,high polyreactivity
3,QVQLVESGGGLVQAGGSLRLSCAASGRTFYSYAMGWYRQAPGKERELVAAISGRGGRTYYADSVKGRFTISRDNAKNTVYLQMNSLKPEDTAVYYCAKGGYAIRYYGFDYWGQGTQVTVSS,high polyreactivity
4,QVQLVESGGGLVQAGGSLRLSCAASGSTIIRNAMGWSRQAPGKERELVAAISTSGGRTHYADSVKGRFTISRDNAKNTVYLQMNSLKPEDTAVYYCATRGKGHYYYWGQGTQVTVSS,high polyreactivity
5,QVQLVESGGGLVQAGGSLRLSCAASGFTFRLVNAMGWYRQAPGKERELVAGINSGDITYYADSVKGRFTISRDNAKNTVYLQMNSLKPEDTAVYYCAARVAWGYDYWGQGTQVTVSS,low polyreactivity
6,QVQLVESGGGLVQAGGSLRLSSTASGFTFKLYAMGWERHATGKERELVAAISSYGGRTYYADSVKGRFTISRDNAKNTVYLQMKSLKPEDTAVYYCKAVRTVNDYHYDYWGQGTQVTVSS,high polyreactivity
7,QVQLVESGGGLVQAGGSLRVSCAASGRILPFYAMGWYRQAPGKERELVATISWTSDSTYYADSVKGRFTISRDNAKNTVSLQMNSLKPEDTAVYYCAREYTYTYASTVIYDHWGQGTQVTVSS,low polyreactivity
8,QVQLVESGGGVVQAGGSLRLSCAATGRIFGVYAMGWYRQAPGKERELVAAISSTGGSTYYADSVKGRFTISRDNAKNTVYLQMNSLKPEDTAVYYCEYDYWGQGSQVTVSS,low polyreactivity
9,QVQLVESGGGLVQAGGSLRLSCAASGRIFVHNAMGWYRQAPGKERELVAAISSGGSTYYADSVKGRFTISRDNAKNTVYLQMNSLKPEDTAVYYCAKYAYYKKYDYWGQGTQVTVSS,high polyreactivity
10,QVQLVESGGGLVQAGGSLRISCAASGRTFCNNAMGWYRQAPGKERELVAAITSTGSRTYYADSVKGRFTISRDNAKNTVYLQMNSLKPEDTAVYYCNRVSHLDYYWGQGTQVTVSS,high polyreactivity
11,QVQLVESGAGLVQAGGSLRLSCDASGSIFSWYAMGWYRQARGKERELVAAITWSGGSTYYADSVKGRFTISRDNAKNTVYLEMNSLKPEDTAVYYCNTYSYYAFDWGLGTQVTVSS,high polyreactivity
12,QVQLVESGGGLVQAGGSLRLSCAASGRIFIYNAMGWSRQAPGKEREFVAAISSSGGSTYYADSVKGRFTISRDNAKNTVYLQMNSLKPEDTAVYYCAAGGWPYSGGWFFQPNYDYWGQGTQVTVSS,low polyreactivity
13,QVQHVESGGGLVQAGGSLRLSCAASGFTSSRNAMGWSRQAPGKERELVATISSGGDTYYADSVKGRFTISRDNAKNSVYLQMNSLKPEYTAVYYCNKDTLYAWGYDYWGQGTQVTVSS,low polyreactivity
14,QVQLVESGGGLVQAGGSLRLSCAASGSTFNEYVMGWYRQAPGKERELVAAITGGGGRTYYADSVKGRFTISRDNAKNTVYLQMNSQKPEDTAVYYCAKRYLYGTYWGFFRYDYWGQGTQVTVSS,low polyreactivity
15,QVQLVESGGGLVQAGGSLRLSCAASGFIFVRYAMGWYRQAPGKEREFVASITRSDGSTYADSVKGRFTISRDNAKNTVYIQMNSLKPEDTAVYYCNKDNHDVELPVEFEYWGQGTQVTVSS,high polyreactivity
16,QVQLVESGGGLVQAGGSLRLSCAASGSIFDDYAMGWYRQAPGKERELVAAISSSGTSTYYADSVKGRFTISRDNAKNTVYLQMNSLKQEDTAVYYCAARSAILKSGYLMDYWGQGTQVTVSS,low polyreactivity
17,QVQLVESGGGLVQAGGSLRLSCAASGNTFYAYTMGLYIQAPGKERELVAAISSDGSTNYADSVKGRFTISRDNAKNTVYLQMNSLKPEDTAVYYCAVTLEVSTVRDYDYWGQGTQVTVSS,low polyreactivity
18,QVQLVESGGGLVQAGGSLRLSCAASGSILFYAMGWYRQAHGKERELVAAITWRGGSTFYADSVKGRFTISRDNAKNTVYLQMNSLKPDDTAVYYCAASYYRYGHRSRGRYYYWGQGTQVTVSS,high polyreactivity
19,QVQLVESGGGLVQAGGSLRLSCAASRSIFAGNAMVWYRQSPGKERELVAGITFGDDSTYYADSVKGRFTISRDNAKNTVYLQMNSLKPEVTAVYYCATDLHPYNYYFYHYWVDAAYDYLGQGTQVTVSS,low polyreactivity
20,QVQLVESGGGLVQAGGSLRLSCAASGSTFYAYAMGWYRQEPGKERELVAAINSVGSTYYADSVKGRFTISRDNAKNTVYLQMNSLKPEDTAVYYCARGVDYPTSQPPYFRHDYWGQGTQVTVSS,low polyreactivity
21,QVQLVESGGGLVQAGGSLRLSCAASGFILKPNAMGWYRQAPGKERELVAAISWSSGSTYYADSVKGRFTISRDNAKNTVYLQMNSLKPEDTAVYYCAKDLTQIYYGDDYWGQGTQVTVSS,low polyreactivity
22,QVQLVESGGGLVQAGGSLRLSCAASGFIFAYYAMGWYIQAPGKERELVAAISLSGARTYYADSVKGRFTISRDTAKNTVYLQMNSLKPEDTAVYYCAATPWSYEYYYWGQGTQVTVSS,low polyreactivity

row,Sequence,polyreactivity (PSR sort gate)
1,QVQLVESGGGLVQAGGSLRLSCAASGIIWYYAMGWYRQAPGKERELVAAISWSSGSTYYADSVKGRFTISRDNAKNTVYLQMNSLKPEDSAVYYCAADVYLVKYDYWGQGTQVTVSS,high polyreactivity
2,QVQLVESGGGLVQAGGSLRLSCAASGSTFSRYAMGWYRQAPGKERELVAAISWGGNTYYADSVKGRFTISRDNAKNTVYLQMNSLKPEDTAVYYCNRYSKLYNTMDYWGQGTQVTVSS,high polyreactivity
3,QVQLVESGGGLVQAGGSLRLSCAASGFIFPYYAMGWYRQAPGKERELVAAISARGGSTYYADSVKGRFTISRDNAKNTFYLQMNRLKPEDTAVYYCAAPYPRWTGKDYDYWGQGTQVTVSS,high polyreactivity
4,QVQHVESGGGLVQAGGSLRLSCAASGSISKINAMGWYRQAPGKERELVAAINTGDSTYYADSVKGRFTISRDNAKNSVYLQMNSLKPEDSAVYYCAAEGSPTGYDYWGQGTQVTVSS,low polyreactivity
5,QVQLVESGGGLVQAGGSLRLTCAASGYIFRLNAMGWYRQAPGKEMELVAGISPGGRTNYADSVKGRFTISRDNAKNTVNLQMNSLKPEDTAVYYCAAAWNTAYWVGSDSLGGGYWGLGTQVTVSS,low polyreactivity
6,QVQLVESGGGLVQAGGSLRLSCAASGRTFRANTMGWYRQAPGKERELVAAINWSGGSTYYADSVKGRFTISRDNAKNTVYLQMNSLKPEDTAVYYCAKRVSVSYRKSTYDYWGQGTQVTVSS,high polyreactivity
7,QVQLVESGGGLVQAGGSLRLSCAATGIIFRDYGKGWYRHAPGKQREFVATITYSGGGTYYADSVKGRFTISRDNAKNTVYLQMNSLKPEDTAVYYCAAYPFYYDLAYDYWGQGTQVTVSS,low polyreactivity
8,QVQLVESGGGLVQAGGSLRLSCAASGRIFKKNAMGWYRQAPGKERELVASITRGASTNYADSVKGRFTISRDNAKNTVYLQMNSLKPEDTAVYYCAAVITLNGDGPPSDYWGQGTQVTVSS,low polyreactivity
9,QVQLVESGGGLVQAGGSLRLSCAASGRTFYNYAMGWYRQAPGKERELVAAISGSGGSTYYADSVKGRFTISRDNAKNTVYLQMNSLKPEDTAVYYCAARKDSYYYRSYDSWGQGTQVTVSS,high polyreactivity
10,QVQLVESGGGLVQAGGSLRLSCAASGSTFAWYAMGWYRQAPGKERELVAGIWNTGRTYYADSVKGRFTISRDNAKNTVYLLMHSLKPEDTAVYYCAALYNSPNVTYYYWGQGTQVTVSS,high polyreactivity
11,QVQLVESGGGLVQAGGSLRLSCAASGSTFNYYTMGWYRQAPGKERELVAAISGRGSITYYADSVKGRFTISRDNAKNTVYLQMNSLKPEDTAVYYCNARYGRWQGSSGEHDYWGQGTQVTVSS,high polyreactivity
12,QVQLVESGGGLVQAGGSLRLSCAASGSTFISNTIGWYRQAPGKERELVAAISSGGDTSYADSVKGRFTISRDNAKNTVYLQMNILKPEDTAVYYCNVDTSATSYSSEYDYWGQGTQVTVSS,low polyreactivity
13,QVQLVESGGGLVQAGGSLRLSCAASGSIFYTNAMGWYRQAHGKERELVAAIRTGGSTNYADSVKGRFTISRDNAKNTDYLQMNSLTPDDTAVYYCNADVYIRDLFYPYIYTYDYWGQGTQVTVSS,low polyreactivity
14,QVQLVESGGGLVQAGGSLRLSCAASGRIFYKYAMGWYRPAPGKERELVAAISWSGGRTYYADSVKGRFTISRDNAKNTVYLQMNSLKPEDTAVYYCNAVYAGFLRVRYDYWGQGTQVTVSS,high polyreactivity
15,QVQLQESGCGLVQEGGSLRPSCAASGSISEGVPMGWSRQAPGEERELVATTVMGATTNYADSVKGRFTISRGNANNTVYLQMISLKPDETAVYYCAAPLRYDKGFSFWGQGTQVTVSS,low polyreactivity
16,QVQLVESGGGLVQAGGSLRLSCAASGFIFRWYAMGWYRQEPGKERELVAAITWRGGSTYADSVKGRFTISRDNAKNTVYLQMNSLKPEVTAVYYCAAETHRRYDYWGQGTQVTVSS,high polyreactivity
17,QVQLVESGGGLVQAGGSLRLSCAASGYIFDPNAMGWYRQAPGKERELVAAISGSGTSTYYADSVKGRFTISRDNAKNTVYLQMNSLKPEDTAVYYCAAAHDAGPVRYYYWGQGTQVTVSS,low polyreactivity
18,QVQLVESGGGLVQAGGSLRLSCAASGFTFHRNAMGWYRQAPGKERELVAAISTRGGSTAYADSVKGRFTISRDNAKNTVYLQMNSLKPEDTAVYYCNTRYVGQRSTWVDQVRRYDYWGQGTQVTVSS,high polyreactivity
19,QVQLVESGGGLVQAGGSLRISCAASGSTFPYNAMGWYRQAPGKERELVATIDRGSTTNYADSVKGRFTISRDNAKNTVYLQMNSLKPEDTAVYYCAADANGYYNYDYWGQGTQVTVSS,low polyreactivity
20,QVQLVESGGGLVQAGGSLRLSCASSRFNFRSYAMGWYRHPPGKERELVAAISRSGGSTYYADSVKGRFTISRDNAKNTVYLQMNSLKPEDTAVYYCAAEYRIPYFFTYGYWGQGTQVTVSS,high polyreactivity
21,QVQLVESGGGLVQAGGSLRLSCAASGRILGYYAMGWSRQAPGKEREFVAAITTRGGNTYYADSVKGRFTISRDNAKNTVYLQMNSLKPEDTAVYYCAAESYTYRDAPTYFTRMYYWGQGTQVTVSS,high polyreactivity
